# Where “and” joins values, the source holds several entries; their conditions need not be identical. Equal entries are not always repeated.
# Tests used:
# human CD3 [1] = target: T1, human CD3 (human, UniProt P07766 23-207; P09693 23-182; P04234 22-171; P20963 22-164); assay: flow cytometry titration, T cells (human CD3+)
# T1 construct: whole, on cells; the description names the epsilon chain only 'in certain instances'; also called hu CD3; CD3 on T cells
# cynomolgus CD33 = target: T2, cynomolgus CD33 (cynomolgus, UniProt A0A7N9ICR5 17-359); assay: ratio of KD by flow cytometry on CHO cells expressing cynomolgus CD33 vs human CD33
# T2 construct: whole, on cells; also called cynoCD33; cyno CD33
# Method: (§1) Cells were incubated with 100 μL of serial dilutions of CD33/CD3 2×2 T-cell engagers. After washing three times with FACS buffer the cells were incubated with 0.1 mL of 10 μg/mL mouse monoclonal anti-His antibody in the same buffer for 45 min on ice. After a second washing cycle, the cells were incubated with 0.1 mL of 15 μg/mL FITC-conjugated goat anti-mouse IgG antibodies under the same conditions as before. As a control, cells were incubated with the anti-His IgG followed by the FITC-conjugated goat anti-mouse IgG antibodies without anti-CD33 2×2 T-cell engagers. The cells were then washed again and resuspended in 0.2 mL of FACS buffer containing 2 μg/mL propidium iodide (PI) in order to exclude dead cells. The fluorescence of 1×10⁴ living cells was measured using a Beckman-Coulter FC500 MPL flow cytometer using the MXP software (Beckman-Coulter, Krefeld, Germany) or a Millipore Guava EasyCyte flow cytometer using the Incyte software (Merck Millipore, Schwalbach, Germany). Mean fluorescence intensities of the cell samples were calculated using CXP software (Beckman-Coulter, Krefeld, Germany) or Incyte software (Merck Millipore, Schwalbach, Germany). After subtracting the fluorescence intensity values of the cells stained with the secondary and tertiary reagents alone the values were used for calculation of the KD values with the equation for one-site binding (hyperbola) of the GraphPad Prism (version 6.00 for Windows, GraphPad Software, La Jolla Calif. USA).
# CD3 binding affinity and crossreactivity were evaluated in titration and flow cytometric experiments on CD3⁺ Jurkat cells (provided by Dr. Moldenhauer, DKFZ Heidelberg; human acute T-cell leukemia) and the cynomolgus CD3⁺ HSC-F cell line (JCRB, cat.:JCRB 1164). […] The KD ratio of crossreactivity was calculated using the KD values determined on the CHO cell lines expressing either recombinant human or recombinant cynomolgus antigens.
# human CD33 [2] = target: T3, human CD33 (human, UniProt P20138 18-364); assay: flow cytometry titration, HL-60 cells
# T3 construct: whole, on cells; also called huCD33; CD33 on HL-60, KG-1, KG-1a, U-937 cells
# T3 sequence (P20138 18-364): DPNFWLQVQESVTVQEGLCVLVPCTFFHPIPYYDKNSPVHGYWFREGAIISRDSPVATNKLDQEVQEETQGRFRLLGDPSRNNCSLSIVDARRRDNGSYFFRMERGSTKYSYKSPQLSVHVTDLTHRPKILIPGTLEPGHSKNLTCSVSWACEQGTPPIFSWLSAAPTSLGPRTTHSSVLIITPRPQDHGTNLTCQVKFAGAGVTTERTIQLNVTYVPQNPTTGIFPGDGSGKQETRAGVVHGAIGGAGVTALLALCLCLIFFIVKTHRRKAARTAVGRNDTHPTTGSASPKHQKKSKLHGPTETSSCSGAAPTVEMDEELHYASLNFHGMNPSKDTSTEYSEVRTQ
# Method: as §1, with “USA). […]” for “USA).”
# human CD33 [3] = target: T3, human CD33; assay: flow cytometry titration, U-937 cells
# Method: as §1, with “USA). […]” for “USA).”
# human CD33 [4] = target: T3, human CD33; assay: flow cytometry, HL-60 cells
# human CD3 [5] = target: T1, human CD3; assay: cell-based or functional assay
# human CD33 [6] = target: T3, human CD33; assay: cell-based or functional assay
# human CD33 [7] = target: T3, human CD33; assay: flow cytometry titration, KG-1 cells
# Method: as §1, with “USA). […]” for “USA).”
# human CD3 [8] = target: T1, human CD3; assay: flow cytometry, human T-cells
# human CD33 [9] = target: T3, human CD33; assay: cell-based or functional assay; remark: listed apart in the source
# T1 sequence (P07766 23-207, chain 1 of 4): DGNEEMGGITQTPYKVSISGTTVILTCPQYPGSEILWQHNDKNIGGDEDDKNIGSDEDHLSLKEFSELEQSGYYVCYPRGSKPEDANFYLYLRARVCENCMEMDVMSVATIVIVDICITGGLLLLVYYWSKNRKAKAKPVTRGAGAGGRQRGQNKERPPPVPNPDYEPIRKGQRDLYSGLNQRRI
# T1 sequence (P09693 23-182, chain 2 of 4): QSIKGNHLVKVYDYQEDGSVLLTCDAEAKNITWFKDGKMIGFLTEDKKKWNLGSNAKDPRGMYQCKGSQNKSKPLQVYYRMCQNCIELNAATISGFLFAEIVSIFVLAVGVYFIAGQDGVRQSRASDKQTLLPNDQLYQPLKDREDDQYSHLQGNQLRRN
# T1 sequence (P04234 22-171, chain 3 of 4): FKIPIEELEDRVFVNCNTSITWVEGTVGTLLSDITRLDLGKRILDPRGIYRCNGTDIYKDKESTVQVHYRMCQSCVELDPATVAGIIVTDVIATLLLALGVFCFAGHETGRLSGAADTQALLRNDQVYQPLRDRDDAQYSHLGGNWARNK
# T1 sequence (P20963 22-164, chain 4 of 4): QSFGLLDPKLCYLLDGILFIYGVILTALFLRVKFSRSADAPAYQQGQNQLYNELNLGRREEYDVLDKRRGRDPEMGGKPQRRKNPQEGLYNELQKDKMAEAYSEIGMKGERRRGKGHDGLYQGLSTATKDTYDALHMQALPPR
Binder,Kd (human CD3 [1]),KD ratio cynoCD33/huCD33 (cynomolgus CD33),Kd (human CD33 [2]),Kd (human CD33 [3]),Kd (human CD33 [4]),CD25 Induction EC50 (human CD3 [5]),CD69 Induction EC50 (human CD3 [5]),T cell Proliferation in PBMC EC50 (human CD3 [5]),Kd (human CD33 [7]),Kd (human CD3 [8]),EC50 on HL-60 (cytotoxicity) (human CD33 [6]),"EC50, cytotoxicity on HL-60 (human CD33 [9])","EC50, cytotoxicity on KG-1 (human CD33 [9])","EC50, cytotoxicity on U-937 (human CD33 [9])","EC50, cytotoxicity, mean of HL-60, U-937, KG-1 (human CD33 [9])"
"CD33/CD3 2×2 T-cell engager 23 (bispecific antibody, Non-covalent homodimer) DIQMTQSPSSLSASVGDRVTITCRSSTGAVTTSNYANWVQQKPGKAPKGLIGGTNKRAPGVPSRFSGSLIGTDFTLTISSLQPEDFATYYCALWYSNLWVFGQGTKVEIKGGSGGSQVQLVQSGAEVKKPGSSVKVSCKASGGTFSSYGISWVRQAPGQGLEWMGGIIPIFGSAHYAQKFQGRVTITADESTSTAYMELSSLRSEDTAVYYCAREYYYDSSEWAFDIWGQGTLVTVSSGGSGQSVLTQPPSASGTPGQRVTISCSGSSSNIGSNTVKWYQQLPGTAPKLLIYSNNQRSSGVPDRFSGSKSGSSASLAISGLQSEDEADYYCAAWDDSLNGYVFGGGTKLTVLGGSGGSEVQLVESGGGLVQPGGSLRLSCAASGFTFSTYAMNWVRQAPGKGLEWVGRIRSKYNNYATYYADSVKDRFTISRDDSKNSLYLQMNSLKTEDTAVYYCARHGNFGNSYVSWFAYWGQGTLVTVSS",97.2 nM,1.9,0.4 nM,5.1 nM,0.4 nM,0.041 nM,0.017 nM,0.037 nM,1 nM,97.2 nM,0.0028 nM,,,,
"CD33/CD3 2×2 T-cell engager 20 (bispecific antibody, Non-covalent homodimer) DIQMTQSPSSLSASVGDRVTITCRSSTGAVTTSNYANWVQQKPGKAPKGLIGGTNKRAPGVPSRFSGSLIGTDFTLTISSLQPEDFATYYCALWYSNLWVFGQGTKVEIKGGSGGSQVQLVQSGAEVKKPGASVKVSCKASGYTFTSYYMHWVRQAPGQGLEWMGIINPSGGSTSYAQKFQGRVTMTRDTSTSTVYMELSSLRSEDTAVYYCARDVVPAAIDYYGMDVWGQGTTVTVSSGGSGQSVLTQPPSASGTPGQRVTISCSGSSSNIGSNTVNWYQQLPGTAPKLLIYSDNQRPSGVPDRFSGSKSGSSASLAISGLQSDDEADYYCATWDDSLNGAVFGGGTKLTVLGGSGGSEVQLVESGGGLVQPGGSLRLSCAASGFTFSTYAMNWVRQAPGKGLEWVGRIRSKYNNYATYYADSVKDRFTISRDDSKNSLYLQMNSLKTEDTAVYYCARHGNFGNSYVSWFAYWGQGTLVTVSSAAAGSHHHHHH",144 nM,33.8,4.1 nM,7.2 nM,4.1 nM,0.098 nM,0.075 nM,0.038 nM,7 nM,144 nM,0.01 nM,,,,

# These reach a lower Kd (human CD3 [1]). Values come first.
Kd (human CD3 [1]),KD ratio cynoCD33/huCD33 (cynomolgus CD33),Kd (human CD33 [2]),Kd (human CD33 [3]),Kd (human CD33 [4]),CD25 Induction EC50 (human CD3 [5]),CD69 Induction EC50 (human CD3 [5]),T cell Proliferation in PBMC EC50 (human CD3 [5]),Kd (human CD33 [7]),Kd (human CD3 [8]),Binder,EC50 on HL-60 (cytotoxicity) (human CD33 [6]),"EC50, cytotoxicity on HL-60 (human CD33 [9])","EC50, cytotoxicity on KG-1 (human CD33 [9])","EC50, cytotoxicity on U-937 (human CD33 [9])","EC50, cytotoxicity, mean of HL-60, U-937, KG-1 (human CD33 [9])"
49.7 nM,45.8,13.7 nM,47.1 nM,13.7 nM,0.134 nM,0.065 nM,0.05 nM,47.9 nM,49.7 nM,"CD33/CD3 2×2 T-cell engager 07 (bispecific antibody, Non-covalent homodimer; also called 2×2 T-cell engager 7) DIQMTQSPSSLSASVGDRVTITCRSSTGAVTTSNYANWVQQKPGKAPKALIGGTNKRAPGVPSRFSGSLIGDKATLTISSLQPEDFATYYCALWYSNLWVFGQGTKVEIKGGSGGSQVQLQESGGGVVQPGRSLRLSCAASGFSFSNYGIHWVRQAPGKGLEWVALISYDGNKKFYADSVKGRFAISRDTSKNTVDLQMTSLRPEDTAVYYCAKDRLESAAFDYWGQGTLVTVSSGGSGGSSYELTQPPSVSVAPGQTAMITCGGNNIGSTTVHWYQQKPGQAPVLVVYDDNERPSGIPERFSGSNSGSTATLTINRVEAGDEADYYCQVWDSGSDHVVFGGGTKLTVLGGSGGSEVQLVESGGGLVQPGGSLRLSCAASGFTFSTYAMNWVRQAPGKGLEWVGRIRSKYNNYATYYADSVKDRFTISRDDSKNSLYLQMNSLKTEDTAVYYCARHGNFGNSYVSYFAYWGQGTLVTVSSAAAGSHHHHHH",0.0178 nM,,,,
2.1 nM,,0.3 nM,1.2 nM,0.3 nM,0.01 nM,0.007 nM,0.006 nM,0.3 nM,2.1 nM,"CD33/CD3 2×2 T-cell engager 14 (bispecific antibody, Non-covalent homodimer) DIQMTQSPSSLSASVGDRVTITCRSSTGAVTTSNYANWVQQKPGKAPKALIGGTNKRAPGVPSRFSGSLIGDKATLTISSLQPEDFATYYCALWYSNLWVFGQGTKVEIKGGSGGSQVQLVQSGAEVKKPGASVKVSCKASGYTFTSYDINWVRQAPGQGLEWMGWMNPNSGNTGFAQKFQGRVTMTRDTSTSTVYMELSSLRSEDTAVYYCARDRANTDFSYGMDVWGQGTLVTVSSGGSGQSVLTQPPSASGTPGQRVTISCSGSRSNIGSNTVNWYQQLPGTAPKLLIYGNNQRPSGVPDRFSGSKSGTSASLAISGLQSEDEADYYCATWDDSLIGWVFGGGTKLTVLGGSGGSEVQLVESGGGLVQPGGSLRLSCAASGFTFSTYAMNWVRQAPGKGLEWVGRIRSKYNNYATYYADSVKDRFTISRDDSKNSLYLQMNSLKTEDTAVYYCARHGNFGNSYVSYFAYWGQGTLVTVSSAAAGSHHHHHH",0.0016 nM,1.6 pM and 168 pg/mL,2.6 pM and 273 pg/mL,3.6 pM and 378 pg/mL,2.6 pM and 273 pg/mL
3.3 nM,1.9,5 nM,24.4 nM,5 nM,0.03 nM,0.114 nM,0.03 nM,52.5 nM,3.3 nM,"CD33/CD3 2×2 T-cell engager 17 (bispecific antibody, Non-covalent homodimer) DIQMTQSPSSLSASVGDRVTITCRSSTGAVTTSNYANWVQQKPGKAPKALIGGTNKRAPGVPSRFSGSLIGDKATLTISSLQPEDFATYYCALWYSNLWVFGQGTKVEIKGGSGGSQVQLVQSGAEVKKPGESLKISCKGSGYSFTSYWIGWVRQMPGKGLEWMGIIYPGDSDTRYSPSFQGQVTISADKSISTAYLQWSSLKASDTAMYYCARHKRGSDAFDIWGQGTTVTVSSGGSGQSVLTQPPSVSGAPGQRVTISCTGSSSNIGAGYDVHWYQQLPGTAPKLLIYGNSNRPSGVPDRFSGSKSGTSASLAITGLQAEDEADYYCQSYDSSLSDVVFGGGTKLTVLGGSGGSEVQLVESGGGLVQPGGSLRLSCAASGFTFSTYAMNWVRQAPGKGLEWVGRIRSKYNNYATYYADSVKDRFTISRDDSKNSLYLQMNSLKTEDTAVYYCARHGNFGNSYVSYFAYWGQGTLVTVSSAAAGSHHHHHH",0.0184 nM,,,,
1.9 nM,3.1,3.4 nM,15.1 nM,,,,,16.3 nM,,"CD33/CD3 2×2 T-cell engager 18 (bispecific antibody, Non-covalent homodimer) EVQLVESGGGLVQPGGSLRLSCAASGFTFSTYAMNWVRQAPGKGLEWVGRIRSKYNNYATYYADSVKDRFTISRDDSKNSLYLQMNSLKTEDTAVYYCARHGNFGNSYVSYFAYWGQGTLVTVSSGGSGGSQSVLTQPPSVSGAPGQRVTISCTGSSSNIGAGYDVHWYQQLPGTAPKLLIYGNSNRPSGVPDRFSGSKSGTSASLAITGLQAEDEADYYCQSYDSSLSDVVFGGGTKLTVLGGSGQVQLVQSGAEVKKPGESLKISCKGSGYSFTSYWIGWVRQMPGKGLEWMGIIYPGDSDTRYSPSFQGQVTISADKSISTAYLQWSSLKASDTAMYYCARHKRGSDAFDIWGQGTTVTVSSGGSGGSDIQMTQSPSSLSASVGDRVTITCRSSTGAVTTSNYANWVQQKPGKAPKALIGGTNKRAPGVPSRFSGSLIGDKATLTISSLQPEDFATYYCALWYSNLWVFGQGTKVEIKAAAGSHHHHHH",0.0063 nM,,,,

# From patent US20200262920A1 (AMPHIVENA THERAPEUTICS, published 2020)
